Target: human IL-9 receptor (human) (UniProt Q01113)
Assay: cell-based or functional assay

UniProt Q01113, sequence (Q01113 41-521, chain 1 of 2): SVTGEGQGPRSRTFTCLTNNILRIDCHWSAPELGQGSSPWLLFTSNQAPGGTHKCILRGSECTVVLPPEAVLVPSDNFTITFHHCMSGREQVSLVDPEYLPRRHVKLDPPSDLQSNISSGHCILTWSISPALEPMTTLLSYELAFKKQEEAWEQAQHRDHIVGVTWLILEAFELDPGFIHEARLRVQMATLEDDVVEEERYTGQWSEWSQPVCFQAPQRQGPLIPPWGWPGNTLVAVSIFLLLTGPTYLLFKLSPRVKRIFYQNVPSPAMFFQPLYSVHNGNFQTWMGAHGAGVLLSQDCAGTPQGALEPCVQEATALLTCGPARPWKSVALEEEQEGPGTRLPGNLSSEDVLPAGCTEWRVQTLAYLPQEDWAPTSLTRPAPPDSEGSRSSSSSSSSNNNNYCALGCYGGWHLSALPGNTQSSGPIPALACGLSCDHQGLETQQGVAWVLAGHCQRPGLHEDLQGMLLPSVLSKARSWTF
UniProt Q01113, sequence (P31785 23-369, chain 2 of 2, further chain): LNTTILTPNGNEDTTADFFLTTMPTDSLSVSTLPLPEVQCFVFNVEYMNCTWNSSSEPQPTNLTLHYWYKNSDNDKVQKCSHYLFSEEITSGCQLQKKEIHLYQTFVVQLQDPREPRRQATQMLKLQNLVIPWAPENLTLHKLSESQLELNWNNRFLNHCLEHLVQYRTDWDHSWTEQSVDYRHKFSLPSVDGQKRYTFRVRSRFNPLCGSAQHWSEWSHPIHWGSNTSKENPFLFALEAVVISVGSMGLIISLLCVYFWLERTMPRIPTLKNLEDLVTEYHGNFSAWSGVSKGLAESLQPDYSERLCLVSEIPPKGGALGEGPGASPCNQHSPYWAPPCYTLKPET

Substance | IC50, antagonism of IL-9-mediated eosinophil survival (7.14 nM wild-type IL-9) [nM] | IC50, antagonism of IL-9 mediated Mo7e proliferation (0.357 nM wild-type IL-9) [nM]
Carboxy-terminal Fc-fusion construct of the K126E/Q133K IL-9 mutein (Fc fusion) | 4.92 | 0.66
Amino-terminal Fc-fusion construct of the K126E/Q133K IL-9 mutein (Fc fusion) | 25.5 | 1.15
